Values of other authors, collected in PMC6273919.

Molecular target: NF-kappa-B p50 (Homo sapiens) (UniProt P19838)
UniProt P19838, sequence (P19838 1-433): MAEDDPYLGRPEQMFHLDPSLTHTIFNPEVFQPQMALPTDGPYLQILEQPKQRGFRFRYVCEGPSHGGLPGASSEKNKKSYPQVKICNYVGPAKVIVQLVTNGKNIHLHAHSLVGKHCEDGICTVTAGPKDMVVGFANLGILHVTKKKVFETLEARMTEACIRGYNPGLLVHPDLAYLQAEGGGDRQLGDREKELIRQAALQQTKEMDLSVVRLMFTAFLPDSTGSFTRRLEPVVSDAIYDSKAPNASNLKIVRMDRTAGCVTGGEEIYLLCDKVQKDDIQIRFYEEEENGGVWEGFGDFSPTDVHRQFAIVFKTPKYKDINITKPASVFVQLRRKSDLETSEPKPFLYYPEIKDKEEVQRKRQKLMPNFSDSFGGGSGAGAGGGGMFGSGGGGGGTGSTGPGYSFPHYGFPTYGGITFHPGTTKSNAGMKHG

Melittin (from UniProt P01501)
Kd: 12 nM
